Results on one sequence are retold here after patent US20090170069.

The target of this data set is T1, NFluc-Pum2 (pumilio domain) (UniProt Q8TB72).
T1 sequence: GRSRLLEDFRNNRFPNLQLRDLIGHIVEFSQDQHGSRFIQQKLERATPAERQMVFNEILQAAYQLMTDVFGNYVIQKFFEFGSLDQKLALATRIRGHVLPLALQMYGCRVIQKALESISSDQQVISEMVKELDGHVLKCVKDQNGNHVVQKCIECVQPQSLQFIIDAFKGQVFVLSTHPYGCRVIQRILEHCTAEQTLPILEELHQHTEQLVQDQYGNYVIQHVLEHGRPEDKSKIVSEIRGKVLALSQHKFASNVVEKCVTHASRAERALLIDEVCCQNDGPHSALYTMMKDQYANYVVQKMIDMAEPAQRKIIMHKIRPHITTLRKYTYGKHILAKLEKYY
Particulars: ternary with CFluc-Ago.

“CAUGGUGUAUAUAGUCUUUUGAUAUAGCGGC / CUAUAUACACCAUGUU [Pum target RNA + Pum1 guide]” showed an activity (fold luminescence vs controls) of 3.
